According to article PMC5527709 (Drug delivery and translational research, 2013):

T1: human CD133 protein (coated on ELISA wells) (human) (UniProt O43490)
T1 sequence: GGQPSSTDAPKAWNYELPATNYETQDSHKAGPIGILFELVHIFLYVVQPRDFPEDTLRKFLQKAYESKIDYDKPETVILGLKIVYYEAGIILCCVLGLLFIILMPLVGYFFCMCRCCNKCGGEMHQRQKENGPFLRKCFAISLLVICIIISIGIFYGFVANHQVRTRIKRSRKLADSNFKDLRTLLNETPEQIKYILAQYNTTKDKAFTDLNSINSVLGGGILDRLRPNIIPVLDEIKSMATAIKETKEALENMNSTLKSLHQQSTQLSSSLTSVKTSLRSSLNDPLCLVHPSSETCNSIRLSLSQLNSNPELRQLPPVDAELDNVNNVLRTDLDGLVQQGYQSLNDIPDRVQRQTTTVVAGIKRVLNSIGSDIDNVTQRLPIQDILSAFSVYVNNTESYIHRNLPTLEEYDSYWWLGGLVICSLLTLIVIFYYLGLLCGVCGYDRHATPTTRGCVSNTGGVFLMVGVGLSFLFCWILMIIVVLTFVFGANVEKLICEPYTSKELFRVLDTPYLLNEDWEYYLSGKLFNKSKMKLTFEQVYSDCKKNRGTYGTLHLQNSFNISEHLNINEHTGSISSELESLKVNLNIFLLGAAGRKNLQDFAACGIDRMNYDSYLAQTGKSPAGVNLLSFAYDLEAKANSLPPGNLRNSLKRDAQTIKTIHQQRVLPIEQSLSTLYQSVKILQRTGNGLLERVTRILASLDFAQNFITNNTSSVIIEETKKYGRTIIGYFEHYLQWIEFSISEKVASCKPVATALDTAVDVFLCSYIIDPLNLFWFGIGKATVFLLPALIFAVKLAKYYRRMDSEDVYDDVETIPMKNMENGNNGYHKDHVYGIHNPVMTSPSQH

B1: anti-CD133 scFv clone 11, HA-tagged, secreted into bacterial culture supernatant (scFv, V domains shown)
VH: EVKLVESGPELKKPGETVKISCKASGYTFTDYSMHWVNQAPGKGLKWMGWINTETGEPSYADDFKGRFAFSLETSASTAYLQINNLKNEDTATYFCATDYGDYFDYWGQGTTLTVSS
VL: DIVLSQSPAIMSASPGEKVTISCSASSSVSYMYWYQQKPGSSPKPWIYRTSNLASGVPARFSGSGSGTSYSLTISSMEAEDAATYYCQQYHSYPPTFGAGTKLELK
B2: anti-CD133 scFv (clone 11) without HA epitope tag, FITC-labelled (scFv, V domains shown)
VH: B1 VH
VL: B1 VL

Experiments:
[1] = target: T1, human CD133 protein (coated on ELISA wells) (human); assay: ELISA
[2] = target: human CD133 on Caco-2 cells (Homo sapiens, endogenous in Caco-2, UniProt O43490); assay: flow cytometry on cells

| Binder | absorbance at 450 nm [1] | binding result [2] |
| --- | --- | --- |
| B1 | 0.9 AU |  |
| B2 |  | binds |
